Target: T1, trypsin (Bos taurus, UniProt P00760)
T1 construct: gene PRSS1
T1 sequence (P00760 24-246): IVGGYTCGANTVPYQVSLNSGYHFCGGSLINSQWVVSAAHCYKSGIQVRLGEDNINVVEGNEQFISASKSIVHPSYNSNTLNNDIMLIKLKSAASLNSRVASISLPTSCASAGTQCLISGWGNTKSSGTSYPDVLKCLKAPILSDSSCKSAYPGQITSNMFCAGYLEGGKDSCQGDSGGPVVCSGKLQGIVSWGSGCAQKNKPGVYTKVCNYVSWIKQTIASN
Assay: Hydrolysis of fluorogenic protease substrate by purified enzyme (trypsin), fluorescence intensity
Format: biochemical
Settings: for Average ratio w/ trypsin to w/o trypsin: average over emission 570-585 nm
Description: Enzymatic hydrolysis of the substrate from Example 1 was carried out in 50 mM carbonate buffer, pH 8.9 at room temperature. Fluorescence intensity of the solution prior to treatment with trypsin and after treatment with trypsin is shown in Table 1, for excitation wavelengths of 360 nm, 522 nm, 530 nm, and 553 nm, respectively. […] This is a characteristic of dye dimerization or stacking, as described above. […] Both the fluorescence and absorption results provided convincing evidence that ground-state interactions existed between dye molecules in the conjugate and became diminished after enzymatic cleavage.

[1] = Excitation 360 nm, emission 570 nm
[2] = Excitation 360 nm, emission 571 nm
[3] = Excitation 360 nm, emission 572 nm
[4] = Excitation 360 nm, emission 573 nm
[5] = Excitation 360 nm, emission 574 nm
[6] = Excitation 360 nm, emission 575 nm
[7] = Excitation 360 nm, emission 576 nm
[8] = Excitation 360 nm, emission 577 nm
[9] = Excitation 360 nm, emission 578 nm
[10] = Excitation 360 nm, emission 579 nm
[11] = Excitation 360 nm, emission 580 nm
[12] = Excitation 360 nm, emission 581 nm
[13] = Excitation 360 nm, emission 582 nm
[14] = Excitation 360 nm, emission 583 nm
[15] = Excitation 360 nm, emission 584 nm
[16] = Excitation 360 nm, emission 585 nm
[17] = Excitation 522 nm, emission 570 nm
[18] = Excitation 522 nm, emission 571 nm
[19] = Excitation 522 nm, emission 572 nm
[20] = Excitation 522 nm, emission 573 nm
[21] = Excitation 522 nm, emission 574 nm
[22] = Excitation 522 nm, emission 575 nm
[23] = Excitation 522 nm, emission 576 nm
[24] = Excitation 522 nm, emission 577 nm
[25] = Excitation 522 nm, emission 578 nm
[26] = Excitation 522 nm, emission 579 nm
[27] = Excitation 522 nm, emission 580 nm
[28] = Excitation 522 nm, emission 581 nm
[29] = Excitation 522 nm, emission 582 nm
[30] = Excitation 522 nm, emission 583 nm
[31] = Excitation 522 nm, emission 584 nm
[32] = Excitation 522 nm, emission 585 nm
[33] = Excitation 530 nm, emission 570 nm
[34] = Excitation 530 nm, emission 571 nm
[35] = Excitation 530 nm, emission 572 nm
[36] = Excitation 530 nm, emission 573 nm
[37] = Excitation 530 nm, emission 574 nm
[38] = Excitation 530 nm, emission 575 nm
[39] = Excitation 530 nm, emission 576 nm
[40] = Excitation 530 nm, emission 577 nm
[41] = Excitation 530 nm, emission 578 nm
[42] = Excitation 530 nm, emission 579 nm
[43] = Excitation 530 nm, emission 580 nm
[44] = Excitation 530 nm, emission 581 nm
[45] = Excitation 530 nm, emission 582 nm
[46] = Excitation 530 nm, emission 583 nm
[47] = Excitation 530 nm, emission 584 nm
[48] = Excitation 530 nm, emission 585 nm
[49] = Excitation 553 nm, emission 570 nm
[50] = Excitation 553 nm, emission 571 nm
[51] = Excitation 553 nm, emission 572 nm
[52] = Excitation 553 nm, emission 573 nm
[53] = Excitation 553 nm, emission 574 nm
[54] = Excitation 553 nm, emission 575 nm
[55] = Excitation 553 nm, emission 576 nm
[56] = Excitation 553 nm, emission 577 nm
[57] = Excitation 553 nm, emission 578 nm
[58] = Excitation 553 nm, emission 579 nm
[59] = Excitation 553 nm, emission 580 nm
[60] = Excitation 553 nm, emission 581 nm
[61] = Excitation 553 nm, emission 582 nm
[62] = Excitation 553 nm, emission 583 nm
[63] = Excitation 553 nm, emission 584 nm
[64] = Excitation 553 nm, emission 585 nm

Average ratio w/ trypsin to w/o trypsin (Excitation 360 nm): 26
Fluorescence intensity w/ trypsin [1]: 8625
Fluorescence intensity w/o trypsin [1]: 319
ratio w/ trypsin to w/o trypsin [1]: 27
Fluorescence intensity w/ trypsin [2]: 8817
Fluorescence intensity w/o trypsin [2]: 347
ratio w/ trypsin to w/o trypsin [2]: 25
Fluorescence intensity w/ trypsin [3]: 9322
Fluorescence intensity w/o trypsin [3]: 369
ratio w/ trypsin to w/o trypsin [3]: 25
Fluorescence intensity w/ trypsin [4]: 9189
Fluorescence intensity w/o trypsin [4]: 365
ratio w/ trypsin to w/o trypsin [4]: 25
Fluorescence intensity w/ trypsin [5]: 9629
Fluorescence intensity w/o trypsin [5]: 354
ratio w/ trypsin to w/o trypsin [5]: 27
Fluorescence intensity w/ trypsin [6]: 9719
Fluorescence intensity w/o trypsin [6]: 410
ratio w/ trypsin to w/o trypsin [6]: 24
Fluorescence intensity w/ trypsin [7]: 9759
Fluorescence intensity w/o trypsin [7]: 401
ratio w/ trypsin to w/o trypsin [7]: 24
Fluorescence intensity w/ trypsin [8]: 9776
Fluorescence intensity w/o trypsin [8]: 378
ratio w/ trypsin to w/o trypsin [8]: 26
Fluorescence intensity w/ trypsin [9]: 9981
Fluorescence intensity w/o trypsin [9]: 379
ratio w/ trypsin to w/o trypsin [9]: 26
Fluorescence intensity w/ trypsin [10]: 9872
Fluorescence intensity w/o trypsin [10]: 392
ratio w/ trypsin to w/o trypsin [10]: 25
Fluorescence intensity w/ trypsin [11]: 9788
Fluorescence intensity w/o trypsin [11]: 361
ratio w/ trypsin to w/o trypsin [11]: 27
Fluorescence intensity w/ trypsin [12]: 9960
Fluorescence intensity w/o trypsin [12]: 375
ratio w/ trypsin to w/o trypsin [12]: 27
Fluorescence intensity w/ trypsin [13]: 9783
Fluorescence intensity w/o trypsin [13]: 376
ratio w/ trypsin to w/o trypsin [13]: 26
Fluorescence intensity w/ trypsin [14]: 9591
Fluorescence intensity w/o trypsin [14]: 347
ratio w/ trypsin to w/o trypsin [14]: 28
Fluorescence intensity w/ trypsin [15]: 9387
Fluorescence intensity w/o trypsin [15]: 385
ratio w/ trypsin to w/o trypsin [15]: 24
Fluorescence intensity w/ trypsin [16]: 9427
Fluorescence intensity w/o trypsin [16]: 353
ratio w/ trypsin to w/o trypsin [16]: 27
Average ratio w/ trypsin to w/o trypsin (Excitation 522 nm): 28
Fluorescence intensity w/ trypsin [17]: 40193
Fluorescence intensity w/o trypsin [17]: 1378
ratio w/ trypsin to w/o trypsin [17]: 29
Fluorescence intensity w/ trypsin [18]: 41416
Fluorescence intensity w/o trypsin [18]: 1525
ratio w/ trypsin to w/o trypsin [18]: 27
Fluorescence intensity w/ trypsin [19]: 42506
Fluorescence intensity w/o trypsin [19]: 1480
ratio w/ trypsin to w/o trypsin [19]: 29
Fluorescence intensity w/ trypsin [20]: 43406
Fluorescence intensity w/o trypsin [20]: 1509
ratio w/ trypsin to w/o trypsin [20]: 29
Fluorescence intensity w/ trypsin [21]: 44241
Fluorescence intensity w/o trypsin [21]: 1645
ratio w/ trypsin to w/o trypsin [21]: 27
Fluorescence intensity w/ trypsin [22]: 45037
Fluorescence intensity w/o trypsin [22]: 1643
ratio w/ trypsin to w/o trypsin [22]: 27
Fluorescence intensity w/ trypsin [23]: 45519
Fluorescence intensity w/o trypsin [23]: 1587
ratio w/ trypsin to w/o trypsin [23]: 29
Fluorescence intensity w/ trypsin [24]: 45648
Fluorescence intensity w/o trypsin [24]: 1672
ratio w/ trypsin to w/o trypsin [24]: 27
Fluorescence intensity w/ trypsin [25]: 45980
Fluorescence intensity w/o trypsin [25]: 1629
ratio w/ trypsin to w/o trypsin [25]: 28
Fluorescence intensity w/ trypsin [26]: 45745
Fluorescence intensity w/o trypsin [26]: 1673
ratio w/ trypsin to w/o trypsin [26]: 27
Fluorescence intensity w/ trypsin [27]: 45757
Fluorescence intensity w/o trypsin [27]: 1595
ratio w/ trypsin to w/o trypsin [27]: 29
Fluorescence intensity w/ trypsin [28]: 44936
Fluorescence intensity w/o trypsin [28]: 1665
ratio w/ trypsin to w/o trypsin [28]: 27
Fluorescence intensity w/ trypsin [29]: 44724
Fluorescence intensity w/o trypsin [29]: 1567
ratio w/ trypsin to w/o trypsin [29]: 29
Fluorescence intensity w/ trypsin [30]: 44076
Fluorescence intensity w/o trypsin [30]: 1599
ratio w/ trypsin to w/o trypsin [30]: 28
Fluorescence intensity w/ trypsin [31]: 43282
Fluorescence intensity w/o trypsin [31]: 1601
ratio w/ trypsin to w/o trypsin [31]: 27
Fluorescence intensity w/ trypsin [32]: 42928
Fluorescence intensity w/o trypsin [32]: 1527
ratio w/ trypsin to w/o trypsin [32]: 28
Average ratio w/ trypsin to w/o trypsin (Excitation 530 nm): 27
Fluorescence intensity w/ trypsin [33]: 46615
Fluorescence intensity w/o trypsin [33]: 1687
ratio w/ trypsin to w/o trypsin [33]: 28
Fluorescence intensity w/ trypsin [34]: 48314
Fluorescence intensity w/o trypsin [34]: 1718
ratio w/ trypsin to w/o trypsin [34]: 28
Fluorescence intensity w/ trypsin [35]: 49955
Fluorescence intensity w/o trypsin [35]: 1819
ratio w/ trypsin to w/o trypsin [35]: 27
Fluorescence intensity w/ trypsin [36]: 50871
Fluorescence intensity w/o trypsin [36]: 1844
ratio w/ trypsin to w/o trypsin [36]: 28
Fluorescence intensity w/ trypsin [37]: 52163
Fluorescence intensity w/o trypsin [37]: 1904
ratio w/ trypsin to w/o trypsin [37]: 27
Fluorescence intensity w/ trypsin [38]: 52681
Fluorescence intensity w/o trypsin [38]: 1895
ratio w/ trypsin to w/o trypsin [38]: 28
Fluorescence intensity w/ trypsin [39]: 52855
Fluorescence intensity w/o trypsin [39]: 1968
ratio w/ trypsin to w/o trypsin [39]: 27
Fluorescence intensity w/ trypsin [40]: 53752
Fluorescence intensity w/o trypsin [40]: 1939
ratio w/ trypsin to w/o trypsin [40]: 28
Fluorescence intensity w/ trypsin [41]: 53611
Fluorescence intensity w/o trypsin [41]: 1970
ratio w/ trypsin to w/o trypsin [41]: 27
Fluorescence intensity w/ trypsin [42]: 53534
Fluorescence intensity w/o trypsin [42]: 2026
ratio w/ trypsin to w/o trypsin [42]: 26
Fluorescence intensity w/ trypsin [43]: 53414
Fluorescence intensity w/o trypsin [43]: 1973
ratio w/ trypsin to w/o trypsin [43]: 27
Fluorescence intensity w/ trypsin [44]: 53190
Fluorescence intensity w/o trypsin [44]: 1985
ratio w/ trypsin to w/o trypsin [44]: 27
Fluorescence intensity w/ trypsin [45]: 52569
Fluorescence intensity w/o trypsin [45]: 1948
ratio w/ trypsin to w/o trypsin [45]: 27
Fluorescence intensity w/ trypsin [46]: 51719
Fluorescence intensity w/o trypsin [46]: 1926
ratio w/ trypsin to w/o trypsin [46]: 27
Fluorescence intensity w/ trypsin [47]: 50705
Fluorescence intensity w/o trypsin [47]: 1905
ratio w/ trypsin to w/o trypsin [47]: 27
Fluorescence intensity w/ trypsin [48]: 49629
Fluorescence intensity w/o trypsin [48]: 1820
ratio w/ trypsin to w/o trypsin [48]: 27
Average ratio w/ trypsin to w/o trypsin (Excitation 553 nm): 25
Fluorescence intensity w/ trypsin [49]: 82385
Fluorescence intensity w/o trypsin [49]: 3301
ratio w/ trypsin to w/o trypsin [49]: 25
Fluorescence intensity w/ trypsin [50]: 85120
Fluorescence intensity w/o trypsin [50]: 3402
ratio w/ trypsin to w/o trypsin [50]: 25
Fluorescence intensity w/ trypsin [51]: 87845
Fluorescence intensity w/o trypsin [51]: 3457
ratio w/ trypsin to w/o trypsin [51]: 25
Fluorescence intensity w/ trypsin [52]: 89719
Fluorescence intensity w/o trypsin [52]: 3658
ratio w/ trypsin to w/o trypsin [52]: 25
Fluorescence intensity w/ trypsin [53]: 91555
Fluorescence intensity w/o trypsin [53]: 3649
ratio w/ trypsin to w/o trypsin [53]: 25
Fluorescence intensity w/ trypsin [54]: 93001
Fluorescence intensity w/o trypsin [54]: 3802
ratio w/ trypsin to w/o trypsin [54]: 24
Fluorescence intensity w/ trypsin [55]: 94046
Fluorescence intensity w/o trypsin [55]: 3827
ratio w/ trypsin to w/o trypsin [55]: 25
Fluorescence intensity w/ trypsin [56]: 94816
Fluorescence intensity w/o trypsin [56]: 3816
ratio w/ trypsin to w/o trypsin [56]: 25
Fluorescence intensity w/ trypsin [57]: 94516
Fluorescence intensity w/o trypsin [57]: 3806
ratio w/ trypsin to w/o trypsin [57]: 25
Fluorescence intensity w/ trypsin [58]: 94662
Fluorescence intensity w/o trypsin [58]: 3962
ratio w/ trypsin to w/o trypsin [58]: 24
Fluorescence intensity w/ trypsin [59]: 93715
Fluorescence intensity w/o trypsin [59]: 3695
ratio w/ trypsin to w/o trypsin [59]: 25
Fluorescence intensity w/ trypsin [60]: 93189
Fluorescence intensity w/o trypsin [60]: 3825
ratio w/ trypsin to w/o trypsin [60]: 24
Fluorescence intensity w/ trypsin [61]: 92281
Fluorescence intensity w/o trypsin [61]: 3736
ratio w/ trypsin to w/o trypsin [61]: 25
Fluorescence intensity w/ trypsin [62]: 91125
Fluorescence intensity w/o trypsin [62]: 3724
ratio w/ trypsin to w/o trypsin [62]: 24
Fluorescence intensity w/ trypsin [63]: 89415
Fluorescence intensity w/o trypsin [63]: 3593
ratio w/ trypsin to w/o trypsin [63]: 25
Fluorescence intensity w/ trypsin [64]: 87910
Fluorescence intensity w/o trypsin [64]: 3449
ratio w/ trypsin to w/o trypsin [64]: 25
fluorescence intensity of the cleaved substrate solution relative to the intact substrate solution (maximum) (excitation 360-553 nm, emission wavelengths from 570 to 585 nm): ≤ 29 times
Substance: TMR-Val-Pro-Arg-Gly-Lys-TMR (XPRGX; not fully specified; TMR dye at both ends) [T-VPRGK-T]

Reference: patent publication US7256012B2, “Fluorogenic protease substrates based on dye-dimerization” (3M Innovative Properties Company, priority 1997, dated 2007)
